In the assay the target is CD3 on human T cells (H9 cells, ATCC HTB-176) (human). Description: flow cytometry on H9 cells, PE anti-human IgG alone (no primary antibody), negative control. (Flow cytometry measures light scatter and fluorescence of single cells or particles in a stream.)
Chain of CD3 on human T cells (H9 cells, ATCC HTB-176) (human) (P07766 23-207, chain 1 of 3): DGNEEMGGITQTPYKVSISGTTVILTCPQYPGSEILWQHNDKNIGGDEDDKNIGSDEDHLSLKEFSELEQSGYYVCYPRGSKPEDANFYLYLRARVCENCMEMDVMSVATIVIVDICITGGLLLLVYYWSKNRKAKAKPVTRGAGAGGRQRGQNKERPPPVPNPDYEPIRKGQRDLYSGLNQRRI
Chain of CD3 on human T cells (H9 cells, ATCC HTB-176) (human) (P04234 22-171, chain 2 of 3, further chain): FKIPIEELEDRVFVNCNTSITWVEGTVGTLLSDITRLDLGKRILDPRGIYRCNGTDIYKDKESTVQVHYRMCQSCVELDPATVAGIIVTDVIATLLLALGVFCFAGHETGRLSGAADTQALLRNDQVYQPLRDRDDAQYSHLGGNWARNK
Chain of CD3 on human T cells (H9 cells, ATCC HTB-176) (human) (P09693 23-182, chain 3 of 3, further chain): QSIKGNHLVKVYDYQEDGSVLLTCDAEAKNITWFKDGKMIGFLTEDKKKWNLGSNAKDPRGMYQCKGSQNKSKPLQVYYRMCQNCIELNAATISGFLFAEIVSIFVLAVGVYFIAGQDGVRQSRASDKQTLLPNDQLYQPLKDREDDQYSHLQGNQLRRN

Regarding a-HuIgG PE (antibody), the Mean : PE-A amounted to 138.

The record behind these values is US20200317779A1.
